# Reference: the supplement of paper PMC10065799, “High-throughput profiling of sequence recognition by tyrosine kinases and SH2 domains using bacterial peptide display” (eLife, 2023)
# Tested on: c-Src
# Assay: phosphorylation enrichment, bacterial display (enrichment ratio); higher = better substrate or ligand; peptides without Tyr show the background
# 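For SH2 binding enrichment of the phosphorylated peptide, bacterial display in this document: peptide library displayed on the E. coli surface as eCPX fusions, selected cells deep-sequenced, score is each peptide's frequency after selection divided by its frequency in the input.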
# 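For phosphorylation enrichment, bacterial display in this document: 11-residue human phosphosite peptides and single-mutation variants displayed on the E. coli surface, counted by deep sequencing, each peptide's frequency after selection divided by its frequency in the unselected input library; frequency after pTyr selection over input frequency; kinase dosed for 20-30% of maximal phosphorylation in three min.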
row,Sequence,phosphorylation enrichment
1,TFRPPYYHRDC [HGD_Y333_N337D],0.583
2,HCFNSYTFPRL [PAK7_Y316_S312C_YF],0.469
3,AESPEYVHMYT [FAM111A_Y511],0.531
4,VVQGIYGFHHH [UFSP2_Y285_Y290H_YF],9.09
5,QKLPLYILENN [VPS13B_Y2774_S2773L],0.964
6,AWVARYIFKRL [LPCAT3_Y348],0.346
7,FLAVGYHQPHI [IDS_Y225_K227Q],0.297
8,IHETTYKSIMK [ACTA1_Y281_N282K],0.384
9,ATRKAYGQALA [TKT_Y321],0.366
10,KVGPGYLGSRG [RET_Y826_G830R],0.366
11,ELELLYPDRNS [NYX_Y284_L285P],0.489
12,MEYAKYGSLRG [RET_Y809_V804M],1.9
13,PLDGESFTLQI [TP53_Y327_Y327S],0.616
14,YYSSEYHYVGG [CTSC_Y345],4.92
15,CSRHFYQLTKL [AR_Y858_R856H],0.422
16,IDDNQYAYLKA [HNF4A_Y286_E285Q],0.48
17,NTQRPYYKGGG [TYROBP_Y111],0.432

row,Sequence,phosphorylation enrichment
1,QFNPEYVQQAS [LRRC7_Y1058_H1054Y_YF],0.518
2,DFDNLYFWDQD [ERBB2_Y1221_A1216D_YF],5.27
3,VAMDDYLKNVV [LRRK2_Y707_M712V],0.376
4,MYDKEYYSVHN [MET_Y1234],1.65
5,MKVPVYETPAG [PGM5_Y358],5.2
6,AHPIIYEIIEA [PYKtide_E_2014],8.32
7,RKETFYTLSCR [GUCY2C_Y681],2.02
8,LQRCKYSHMEP [TEX45_Y434],0.982
9,NDQANYLLNTD [ADA_Y290_S291L],0.468
10,EGDGVYTLNNK [HP_Y125_E130K],4.5
11,FSCLPYGRLAF [SLC52A2_Y305_YF],2.36
12,PVDVAYRRGFF [PLEC_Y2967_YF],0.475
13,QTLTDYDTRFF [CSNK2A3_Y131_I133T_YF],0.573
14,CTTIHYNFTCN [TP53_Y234_M237T_YF],0.441
15,RLRKFYLGKFL [KLB_Y906_YF],0.707
16,FISVGYVDDTQ [HLA-B_Y51],0.405

# Molecular target: Grb2 SH2 (UniProt P62993)
# Assay: SH2 binding enrichment of the phosphorylated peptide, bacterial display (enrichment ratio); higher = better substrate or ligand; peptides without Tyr show the background
# Sequence of Grb2 SH2 (P62993 whole entry, looked up): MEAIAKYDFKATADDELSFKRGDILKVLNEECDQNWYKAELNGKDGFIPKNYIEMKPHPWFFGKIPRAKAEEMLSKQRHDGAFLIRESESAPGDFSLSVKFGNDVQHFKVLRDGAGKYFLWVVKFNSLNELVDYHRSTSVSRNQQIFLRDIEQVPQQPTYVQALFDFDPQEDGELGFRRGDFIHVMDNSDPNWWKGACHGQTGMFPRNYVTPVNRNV
row,Sequence,SH2 binding enrichment
1,TFRPPYYHRDC [HGD_Y333_N337D],1.04
2,HCFNSYTFPRL [PAK7_Y316_S312C_YF],0.734
3,AESPEYVHMYT [FAM111A_Y511],0.768
4,VVQGIYGFHHH [UFSP2_Y285_Y290H_YF],1.06
5,QKLPLYILENN [VPS13B_Y2774_S2773L],0.746
6,AWVARYIFKRL [LPCAT3_Y348],1.05
7,FLAVGYHQPHI [IDS_Y225_K227Q],0.879
8,IHETTYKSIMK [ACTA1_Y281_N282K],0.804
9,ATRKAYGQALA [TKT_Y321],0.965
10,KVGPGYLGSRG [RET_Y826_G830R],1
11,ELELLYPDRNS [NYX_Y284_L285P],0.831
12,MEYAKYGSLRG [RET_Y809_V804M],0.703
13,PLDGESFTLQI [TP53_Y327_Y327S],0.663
14,YYSSEYHYVGG [CTSC_Y345],0.929
15,CSRHFYQLTKL [AR_Y858_R856H],1.04
16,IDDNQYAYLKA [HNF4A_Y286_E285Q],0.87
17,NTQRPYYKGGG [TYROBP_Y111],1.21

row,Sequence,SH2 binding enrichment
1,QFNPEYVQQAS [LRRC7_Y1058_H1054Y_YF],0.871
2,DFDNLYFWDQD [ERBB2_Y1221_A1216D_YF],0.668
3,VAMDDYLKNVV [LRRK2_Y707_M712V],0.828
4,MYDKEYYSVHN [MET_Y1234],0.873
5,MKVPVYETPAG [PGM5_Y358],0.851
6,AHPIIYEIIEA [PYKtide_E_2014],1.18
7,RKETFYTLSCR [GUCY2C_Y681],0.996
8,LQRCKYSHMEP [TEX45_Y434],0.64
9,NDQANYLLNTD [ADA_Y290_S291L],0.765
10,EGDGVYTLNNK [HP_Y125_E130K],1.08
11,FSCLPYGRLAF [SLC52A2_Y305_YF],0.793
12,PVDVAYRRGFF [PLEC_Y2967_YF],0.696
13,QTLTDYDTRFF [CSNK2A3_Y131_I133T_YF],0.862
14,CTTIHYNFTCN [TP53_Y234_M237T_YF],1.96
15,RLRKFYLGKFL [KLB_Y906_YF],0.679
16,FISVGYVDDTQ [HLA-B_Y51],1

# Molecular target: SHP2-C SH2
# Assay: as above
row,Sequence,SH2 binding enrichment
1,TFRPPYYHRDC [HGD_Y333_N337D],1.2
2,HCFNSYTFPRL [PAK7_Y316_S312C_YF],0.574
3,AESPEYVHMYT [FAM111A_Y511],0.586
4,VVQGIYGFHHH [UFSP2_Y285_Y290H_YF],0.757
5,QKLPLYILENN [VPS13B_Y2774_S2773L],0.802
6,AWVARYIFKRL [LPCAT3_Y348],1.1
7,FLAVGYHQPHI [IDS_Y225_K227Q],1.25
8,IHETTYKSIMK [ACTA1_Y281_N282K],3.31
9,ATRKAYGQALA [TKT_Y321],0.594
10,KVGPGYLGSRG [RET_Y826_G830R],0.769
11,ELELLYPDRNS [NYX_Y284_L285P],1.01
12,MEYAKYGSLRG [RET_Y809_V804M],0.607
13,PLDGESFTLQI [TP53_Y327_Y327S],0.706
14,YYSSEYHYVGG [CTSC_Y345],1.13
15,CSRHFYQLTKL [AR_Y858_R856H],0.821
16,IDDNQYAYLKA [HNF4A_Y286_E285Q],0.898
17,NTQRPYYKGGG [TYROBP_Y111],1.39

row,Sequence,SH2 binding enrichment
1,QFNPEYVQQAS [LRRC7_Y1058_H1054Y_YF],0.642
2,DFDNLYFWDQD [ERBB2_Y1221_A1216D_YF],0.854
3,VAMDDYLKNVV [LRRK2_Y707_M712V],0.648
4,MYDKEYYSVHN [MET_Y1234],0.566
5,MKVPVYETPAG [PGM5_Y358],0.698
6,AHPIIYEIIEA [PYKtide_E_2014],1.07
7,RKETFYTLSCR [GUCY2C_Y681],0.821
8,LQRCKYSHMEP [TEX45_Y434],1.1
9,NDQANYLLNTD [ADA_Y290_S291L],0.893
10,EGDGVYTLNNK [HP_Y125_E130K],0.426
11,FSCLPYGRLAF [SLC52A2_Y305_YF],0.538
12,PVDVAYRRGFF [PLEC_Y2967_YF],0.599
13,QTLTDYDTRFF [CSNK2A3_Y131_I133T_YF],0.852
14,CTTIHYNFTCN [TP53_Y234_M237T_YF],1.83
15,RLRKFYLGKFL [KLB_Y906_YF],0.549
16,FISVGYVDDTQ [HLA-B_Y51],0.747

# Molecular target: c-Src SH2
# Assay: as above
row,Sequence,SH2 binding enrichment
1,TFRPPYYHRDC [HGD_Y333_N337D],1.05
2,HCFNSYTFPRL [PAK7_Y316_S312C_YF],0.678
3,AESPEYVHMYT [FAM111A_Y511],0.693
4,VVQGIYGFHHH [UFSP2_Y285_Y290H_YF],0.588
5,QKLPLYILENN [VPS13B_Y2774_S2773L],0.642
6,AWVARYIFKRL [LPCAT3_Y348],1
7,FLAVGYHQPHI [IDS_Y225_K227Q],1.55
8,IHETTYKSIMK [ACTA1_Y281_N282K],0.55
9,ATRKAYGQALA [TKT_Y321],0.622
10,KVGPGYLGSRG [RET_Y826_G830R],0.588
11,ELELLYPDRNS [NYX_Y284_L285P],0.513
12,MEYAKYGSLRG [RET_Y809_V804M],0.484
13,PLDGESFTLQI [TP53_Y327_Y327S],0.422
14,YYSSEYHYVGG [CTSC_Y345],1.98
15,CSRHFYQLTKL [AR_Y858_R856H],0.97
16,IDDNQYAYLKA [HNF4A_Y286_E285Q],1.47
17,NTQRPYYKGGG [TYROBP_Y111],0.736

row,Sequence,SH2 binding enrichment
1,QFNPEYVQQAS [LRRC7_Y1058_H1054Y_YF],0.458
2,DFDNLYFWDQD [ERBB2_Y1221_A1216D_YF],0.333
3,VAMDDYLKNVV [LRRK2_Y707_M712V],0.573
4,MYDKEYYSVHN [MET_Y1234],0.622
5,MKVPVYETPAG [PGM5_Y358],1.28
6,AHPIIYEIIEA [PYKtide_E_2014],0.872
7,RKETFYTLSCR [GUCY2C_Y681],0.749
8,LQRCKYSHMEP [TEX45_Y434],0.78
9,NDQANYLLNTD [ADA_Y290_S291L],0.527
10,EGDGVYTLNNK [HP_Y125_E130K],0.377
11,FSCLPYGRLAF [SLC52A2_Y305_YF],0.777
12,PVDVAYRRGFF [PLEC_Y2967_YF],0.56
13,QTLTDYDTRFF [CSNK2A3_Y131_I133T_YF],0.708
14,CTTIHYNFTCN [TP53_Y234_M237T_YF],1.67
15,RLRKFYLGKFL [KLB_Y906_YF],0.444
16,FISVGYVDDTQ [HLA-B_Y51],0.599
